The values below come from patent US20200040059A1.

In experiment [1] the target is human CD28, full-length, expressed on transfected Expi293 cells (human) (UniProt P10747). Briefly: flow cytometry on CD28-expressing Expi293 cells.
For experiment [2], the target named is human PD-L1, full-length, expressed on transfected Expi293 cells (human) (UniProt Q9NZQ7). The experiment is described as follows: flow cytometry on PD-L1-expressing Expi293 cells.
Experiment [3] addresses human CTLA-4, full-length, expressed on transfected Expi293 cells (human) (UniProt P16410). Briefly: flow cytometry on CTLA-4-expressing Expi293 cells.
Experiment [4] deals with T1, CD96 (UniProt P40200).
T1 sequence (looked up): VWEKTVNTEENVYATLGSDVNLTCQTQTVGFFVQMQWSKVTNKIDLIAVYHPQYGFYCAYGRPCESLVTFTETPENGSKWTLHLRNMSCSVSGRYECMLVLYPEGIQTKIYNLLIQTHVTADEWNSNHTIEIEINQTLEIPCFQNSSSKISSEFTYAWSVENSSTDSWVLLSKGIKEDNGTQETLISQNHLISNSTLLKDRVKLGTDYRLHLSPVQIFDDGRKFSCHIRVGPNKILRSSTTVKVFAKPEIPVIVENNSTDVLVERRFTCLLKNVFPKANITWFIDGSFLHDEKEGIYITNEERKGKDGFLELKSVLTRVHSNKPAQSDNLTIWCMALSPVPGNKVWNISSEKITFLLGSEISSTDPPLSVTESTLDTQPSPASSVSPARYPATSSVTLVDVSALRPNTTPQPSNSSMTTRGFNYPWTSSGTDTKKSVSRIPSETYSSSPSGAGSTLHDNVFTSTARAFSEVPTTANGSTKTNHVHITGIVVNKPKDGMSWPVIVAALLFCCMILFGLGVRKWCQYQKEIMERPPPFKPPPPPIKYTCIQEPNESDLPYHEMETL
Briefly: flow cytometry on CD96-expressing cells.

Experiment [5] deals with T1, CD96. Briefly: flow cytometry, cells.
Experiment [6] addresses T2, TIGIT (human) (UniProt Q495A1).
T2 sequence: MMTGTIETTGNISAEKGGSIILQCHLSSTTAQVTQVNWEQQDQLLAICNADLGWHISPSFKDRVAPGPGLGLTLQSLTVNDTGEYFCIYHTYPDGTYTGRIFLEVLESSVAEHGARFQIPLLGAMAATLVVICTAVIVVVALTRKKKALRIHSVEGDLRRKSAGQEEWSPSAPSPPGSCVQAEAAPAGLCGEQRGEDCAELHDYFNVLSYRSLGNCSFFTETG
The experiment is described as follows: flow cytometry, transfected cells.

Experiment [7] concerns the target T3, CD226 (human) (UniProt Q15762).
T3 sequence: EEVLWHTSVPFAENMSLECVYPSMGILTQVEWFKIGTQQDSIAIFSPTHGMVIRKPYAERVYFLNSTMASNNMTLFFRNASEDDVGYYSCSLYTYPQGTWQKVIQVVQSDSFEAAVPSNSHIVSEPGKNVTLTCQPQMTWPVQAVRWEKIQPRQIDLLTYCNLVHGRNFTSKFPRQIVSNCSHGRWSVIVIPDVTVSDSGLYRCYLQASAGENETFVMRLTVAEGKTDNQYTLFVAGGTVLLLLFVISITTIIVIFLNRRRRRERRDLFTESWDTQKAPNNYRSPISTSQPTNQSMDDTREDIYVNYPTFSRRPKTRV
The experiment is described as follows: flow cytometry, transfected cells.

Experiment [8] deals with T1, CD96. Briefly: flow cytometry, CD96-expressing cells.
In experiment [9] the target is T3, CD226 (human). The experiment is described as follows: flow cytometry, CD226-expressing cells.
Experiment [10] concerns the target T2, TIGIT (human). The experiment is described as follows: flow cytometry, TIGIT-expressing cells.
The next experiment addresses CD28 (human) (UniProt P10747). The experiment is described as follows: flow cytometry, transfected cells.
A further experiment addresses PD-L1 (human) (UniProt Q9NZQ7). Briefly: flow cytometry, transfected cells.
A further experiment deals with human B7-H6 (human) (UniProt Q68D85). The experiment is described as follows: flow cytometry, transfected cells.
The target in experiment [11] is PD-1 on Jurkat/PD-1 cells. The experiment is described as follows: flow cytometry on Jurkat/PD-1 cells, 50 nM.
The target in experiment [12] is PD-1 on Jurkat/PD-1 cells. The experiment is described as follows: flow cytometry, 50 nM; ratio to wild type PD-L1 IgV-Fc.
In experiment [13] the target is PD-1 (Homo sapiens (Human)) (UniProt Q15116). The experiment is described as follows: flow cytometry, Jurkat/PD-1 cells.
The next experiment addresses PD-1-Fc. Briefly: Fortebio (BLI), PD-1-Fc.

Chain of PD-1 (Homo sapiens (Human)) (Q15116 21-288 limits assumed, form in doubt): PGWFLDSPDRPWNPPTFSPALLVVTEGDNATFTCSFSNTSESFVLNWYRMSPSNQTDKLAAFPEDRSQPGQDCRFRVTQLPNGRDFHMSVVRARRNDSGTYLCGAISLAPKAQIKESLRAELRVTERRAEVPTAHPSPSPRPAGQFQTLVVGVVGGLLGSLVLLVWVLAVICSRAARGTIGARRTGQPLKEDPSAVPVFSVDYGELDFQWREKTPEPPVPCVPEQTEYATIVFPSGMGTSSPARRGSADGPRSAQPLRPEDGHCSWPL
Chain of human CTLA-4, full-length, expressed on transfected Expi293 cells (human) (P16410 36-223 limits assumed): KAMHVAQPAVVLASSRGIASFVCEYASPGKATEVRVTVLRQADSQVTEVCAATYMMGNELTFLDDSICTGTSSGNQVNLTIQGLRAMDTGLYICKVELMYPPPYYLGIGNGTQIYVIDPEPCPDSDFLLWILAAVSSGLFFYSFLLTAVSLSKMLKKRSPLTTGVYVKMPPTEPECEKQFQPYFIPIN
Chain of human PD-L1, full-length, expressed on transfected Expi293 cells (human) (Q9NZQ7 19-290 limits assumed): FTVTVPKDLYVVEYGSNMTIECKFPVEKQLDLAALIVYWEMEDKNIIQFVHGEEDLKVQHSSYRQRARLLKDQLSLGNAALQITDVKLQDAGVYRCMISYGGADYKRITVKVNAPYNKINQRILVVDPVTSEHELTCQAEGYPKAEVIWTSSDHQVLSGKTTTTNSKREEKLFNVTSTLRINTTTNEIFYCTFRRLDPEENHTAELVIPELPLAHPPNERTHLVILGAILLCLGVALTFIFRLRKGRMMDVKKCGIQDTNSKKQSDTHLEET
Chain of Domain 1: CD86 WT / Domain 2: CD80 WT / Fc (Fc fusion) (chain): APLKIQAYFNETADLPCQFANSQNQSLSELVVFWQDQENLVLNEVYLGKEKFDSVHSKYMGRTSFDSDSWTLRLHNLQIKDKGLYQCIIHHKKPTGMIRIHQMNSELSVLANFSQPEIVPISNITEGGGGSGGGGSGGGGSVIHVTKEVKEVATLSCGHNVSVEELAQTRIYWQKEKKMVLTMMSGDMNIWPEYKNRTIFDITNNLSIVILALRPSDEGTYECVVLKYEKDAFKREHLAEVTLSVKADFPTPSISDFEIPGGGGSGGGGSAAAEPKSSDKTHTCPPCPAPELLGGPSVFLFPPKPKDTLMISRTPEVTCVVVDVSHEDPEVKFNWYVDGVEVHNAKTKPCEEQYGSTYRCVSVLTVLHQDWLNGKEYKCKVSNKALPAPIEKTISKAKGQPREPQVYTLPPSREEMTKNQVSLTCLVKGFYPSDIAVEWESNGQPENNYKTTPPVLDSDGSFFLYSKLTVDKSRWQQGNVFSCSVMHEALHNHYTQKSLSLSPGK
Chain of Domain 1: CD80 WT / Domain 2: CD86 WT / Fc (Fc fusion) (chain): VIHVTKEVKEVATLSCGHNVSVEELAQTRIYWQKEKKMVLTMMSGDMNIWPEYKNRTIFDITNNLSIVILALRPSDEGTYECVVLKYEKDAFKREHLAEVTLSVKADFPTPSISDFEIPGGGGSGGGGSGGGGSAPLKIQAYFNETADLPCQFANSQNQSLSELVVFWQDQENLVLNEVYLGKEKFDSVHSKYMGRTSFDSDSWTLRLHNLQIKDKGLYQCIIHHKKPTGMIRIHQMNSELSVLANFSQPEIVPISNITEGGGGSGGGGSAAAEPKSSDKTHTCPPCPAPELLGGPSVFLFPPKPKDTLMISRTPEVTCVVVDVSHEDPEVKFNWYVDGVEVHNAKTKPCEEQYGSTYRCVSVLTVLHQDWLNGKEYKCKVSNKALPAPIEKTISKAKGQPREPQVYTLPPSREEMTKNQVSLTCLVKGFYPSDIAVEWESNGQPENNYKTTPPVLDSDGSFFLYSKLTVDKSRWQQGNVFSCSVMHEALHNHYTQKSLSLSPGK
Chain of PD-L1 (human) (Q9NZQ7 19-290 limits assumed): as the sequence (Q9NZQ7 19-290 limits assumed) above
Chain of human B7-H6 (human) (Q68D85 25-454): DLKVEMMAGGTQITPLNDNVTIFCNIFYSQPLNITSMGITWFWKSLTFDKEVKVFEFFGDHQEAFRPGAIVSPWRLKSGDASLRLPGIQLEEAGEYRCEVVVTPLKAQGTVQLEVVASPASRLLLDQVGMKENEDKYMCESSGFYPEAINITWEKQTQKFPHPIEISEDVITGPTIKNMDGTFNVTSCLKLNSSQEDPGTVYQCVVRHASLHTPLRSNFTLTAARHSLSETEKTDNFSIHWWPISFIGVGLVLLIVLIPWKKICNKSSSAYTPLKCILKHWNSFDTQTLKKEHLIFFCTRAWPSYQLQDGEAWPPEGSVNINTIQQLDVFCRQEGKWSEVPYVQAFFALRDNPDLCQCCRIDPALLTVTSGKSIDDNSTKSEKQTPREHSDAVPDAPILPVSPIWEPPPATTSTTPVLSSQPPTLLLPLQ

For “CD80 variant T28S/L70Q/A91G/E95K/T120S/T130A ECD-Fc fusion (from UniProt P33681 35-242)”, the MFI was 32 MFI in experiment [1], 6 MFI in [2] and 65 MFI in experiment [3].
In the case of “CD80 variant V4M/L70Q/A91G/T120S/T130A ECD-Fc fusion”, the MFI in [1] worked out at 89 MFI; in experiment [2] it was 6 MFI; in [3] it was 263 MFI. For the same substance, the MFI parental ratio (ratio to WT CD80 ECD-Fc) in experiment [1] worked out at 0.94; in experiment [2] it was 0.09; in [3] it was 1.26.
As to “CD112 ECD-Fc (from UniProt Q92692 32-360) (Fc fusion)”, the MFI at 100 nM with CD96 [4] came to 1100 MFI.
For the substance “CD112 variant R12W, A46T, K66M, Q79R, N106I, T113A, S118F IgV-Fc (from UniProt Q92692 32-156) (Fc fusion)”, the MFI at 100 nM with CD96 [4] worked out at 4060 MFI.
As to “CD155 A81V, L83P IgV-Fc (from UniProt P15151 24-139) (Fc fusion)”, the MFI with CD96 [5] came out at 2620; in the experiment with TIGIT (human) [6], 2910.
In the case of “CD155 P18S, F91P IgV-Fc (from UniProt P15151 24-139) (Fc fusion)”, the MFI stood at 2680 in the experiment with CD96 [5] and 3220 with TIGIT (human) [6].
On to “CD155 P18S, F91S IgV-Fc (from UniProt P15151 24-139) (Fc fusion)”, for which the MFI in the experiment with CD96 [5] was 147000; with CD226 (human) [7], 409000.
For the substance “CD155 variant IgV-Fc A13R, D23Y, E37P, S42P, Q62Y, A81E (from UniProt P15151 24-139) (Fc fusion)”, the MFI at 100 nM in the experiment with CD96 [8] was 5760 MFI; with CD226 (human) [9] it was 11700 MFI; with TIGIT (human) [10] it was 4160 MFI.
For the substance “CD155 variant IgV-Fc L79P, L104M (from UniProt P15151 24-139) (Fc fusion)”, the MFI at 100 nM was 2890 MFI with CD96 [8], 8320 MFI with CD226 (human) [9] and 3210 MFI with TIGIT (human) [10].
With “CD155 variant IgV-Fc P18F, T26M, L44V, Q62K, L79P, F91S, L104M, G111D (from UniProt P15151 24-139) (Fc fusion)”, the MFI at 100 nM in the experiment with CD96 [8] was 1630 MFI.
In turn, “CD155 variant IgV-Fc P18H, S42G, T45I, S52T, G53R, S54H, V57L, H59E, T61S, S65D, E68G, L104N (Fc fusion)” showed an MFI at 100 nM in the experiment with CD96 [8] of 3700 MFI.
Take “CD155 variant IgV-Fc P18L, E37S, Q62M, G80S, A81P, G99Y, S112N (from UniProt P15151 24-139) (Fc fusion)”: the MFI at 100 nM with CD96 [8] is 3340 MFI; with TIGIT (human) [10], 5900 MFI.
In the case of “CD155 variant IgV-Fc P18S, A47G, L79P, F91S, L104M, T107A, R113W (from UniProt P15151 24-139) (Fc fusion)”, the MFI at 11.1 nM with CD226 (human) [9] is 1190 MFI.
Turning to “CD155 variant IgV-Fc P18S, L79P, L104M, T107M (from UniProt P15151 24-139) (Fc fusion)”, the MFI at 100 nM in the experiment with CD96 [8] turned out to be 22800 MFI; with CD226 (human) [9], 18300 MFI.
For the substance “CD155 variant IgV-Fc P18S, S65W, S67A, M90V, V95A, L104Q, G111R (from UniProt P15151 24-139) (Fc fusion)”, the MFI at 100 nM with CD96 [8] worked out at 2570 MFI.
“CD155 variant IgV-Fc P18S, T45S, T61K, S65W, S67A, F91S, G111R (from UniProt P15151 24-139) (Fc fusion)”: the values for the MFI at 100 nM with CD96 [8], with CD226 (human) [9] and in the experiment with TIGIT (human) [10] were 2220 MFI, 2110 MFI and 125000 MFI, respectively.
With “CD155 variant IgV-Fc P18S, V41A, S42G, T45G, L104N (from UniProt P15151 24-139) (Fc fusion)”, the MFI at 100 nM with CD96 [8] stood at 3090 MFI; with CD226 (human) [9], 11400 MFI; with TIGIT (human) [10], 3820 MFI.
Take “CD155 variant IgV-Fc V9I, Q12K, P18F, S65A, S67V, L79P, L104T, G111R, S112I (from UniProt P15151 21-139) (Fc fusion)”: in the experiment with CD226 (human) [9], the MFI at 11.1 nM was 803 MFI.
For “CD155 variant IgV-Fc V9L, P18T, Q62R, L79P, F91S, L104M, G111R (from UniProt P15151 24-139) (Fc fusion)”, the values for the MFI at 11.1 nM in the experiment with CD96 [8] and with CD226 (human) [9] were 1500 MFI and 835 MFI, respectively.
Turning to “Domain 1: CD80 WT / Domain 2: CD86 WT / Fc (Fc fusion)”, the MFI with CD28 (human) is 60300; with PD-L1 (human), 2080.
Turning to “Domain 1: CD86 WT / Domain 2: CD80 WT / Fc (Fc fusion)”, the MFI amounted to 4950 with CD28 (human) and 1520 in the experiment with PD-L1 (human).
“Domain 1: CD86 WT / Domain 2: Nkp30 WT / Fc (Fc fusion)” registered an MFI with human B7-H6 (human) of 129000.
On to “Full length PD-L1 Fc (from UniProt Q9NZQ7 19-239) (Fc fusion)”, for which the MFI at 50 nM in experiment [11] amounted to 18500. Further, the Fold increase over wildtype PD-L1 IgV-Fc in experiment [12] came out at 3.5 fold.
On to “PD-L1 IgV A33D, S75P Fc fusion (SEQ ID NO 1310)”, for which the MFI at 50 nM in [11] was found to be 1790. For the same substance, the Fold increase over wildtype PD-L1 IgV-Fc in experiment [12] turned out to be 0.3 fold.
In turn, PD-L1 IgV A33D, S75P, D104G Fc fusion gave an MFI at 50 nM in experiment [11] of 251. Also, the Fold increase over wildtype PD-L1 IgV-Fc in [12] was 0 fold.
As to “PD-L1 IgV I20L, A33D, D43G, N45D, V58A, N78I Fc fusion”, the MFI at 50 nM in [11] amounted to 80200. Also, in [12], the Fold increase over wildtype PD-L1 IgV-Fc turned out to be 15.3 fold.
For “PD-L1 IgV I20L, D43G, N45D, N78I Fc fusion” the same measures were 67000 and 12.8 fold.
Substance “PD-L1 IgV I20L, D43G, N45D, V58A, N78I Fc fusion” returned an MFI at 50 nM in experiment [11] of 72700. Moreover, in [12], the Fold increase over wildtype PD-L1 IgV-Fc worked out at 13.9 fold.
Turning to “PD-L1 IgV I20L, E27G, D43G, N45D, V58A, N78I Fc fusion”, the MFI at 50 nM in experiment [11] is 69500. In addition, the Fold increase over wildtype PD-L1 IgV-Fc in experiment [12] was 13.3 fold.
The substance “PD-L1 IgV I20L, E27G, N45T, V50A Fc fusion” returned an MFI at 50 nM in [11] of 29800. In addition, the Fold increase over wildtype PD-L1 IgV-Fc in [12] amounted to 5.7 fold.
Consider “variant PD-L2 IgV-Fc E44D, V89D, W91R (Fc fusion)”, for which, in experiment [13], the MFI at 50 nM came to 614.
The same measure, in the same setting: the same measure for “variant PD-L2 IgV-Fc H15Q, C23S, I86T (Fc fusion)”: 830.
For the substance “variant PD-L2 IgV-Fc H15Q, N24S, T47A, Q72H, R76G, V89D (Fc fusion)”, in the experiment with PD-1-Fc, the Fortebio binding to PD-1-Fc Response Units (Response Units) turned out to be 0.4. Moreover, in experiment [13], the MFI at 50 nM turned out to be 32100.
Taken in the same sequence, the figures for “variant PD-L2 IgV-Fc H15Q, Q82R, V89D (Fc fusion)” were 1.2 and 49700.
Take “variant PD-L2 IgV-Fc H15Q, S67L, I86T (Fc fusion)”: the MFI at 50 nM in experiment [13] worked out at 16000.
Turning to “variant PD-L2 IgV-Fc I13V, H15Q, E44V, T47A, Q82R, V89D (Fc fusion)”, the MFI at 50 nM in experiment [13] came to 61000.
“variant PD-L2 IgV-Fc I13V, H15Q, T37A, E44D, S48C, S67L, Q82R, V89D (Fc fusion)”: the Fortebio binding to PD-1-Fc Response Units (Response Units) with PD-1-Fc worked out at 1.25. The substance also gave an MFI at 50 nM in experiment [13] of 47600.
In the case of “variant PD-L2 IgV-Fc I13V, H15Q, T47A, R76G, V89D (Fc fusion)”, the Fortebio binding to PD-1-Fc Response Units (Response Units) with PD-1-Fc stood at 1.6. This substance also had an MFI at 50 nM in experiment [13] of 53700.
